The results in this text go back to patent publication US20240132589A1 (ONCORESPONSE, published 2024).

Assay in all cases: flow cytometry, transiently transfected HEK293-6E cells
In general terms: Flow cytometry measures light scatter and fluorescence of single cells or particles in a stream.

For test [1], the target named is T1, Human LILRB1 on transiently transfected HEK293-6E cells (human, UniProt Q8NHL6 24-650).
T1 construct: whole, on cells; also called hLILRB1

Test [2] has as its target T2, Human LILRA4 on transiently transfected HEK293-6E cells (human, UniProt P59901 24-499).
T2 construct: whole, on cells; also called hLILRA4

Test [3] deals with T3, Human LILRA1 on transiently transfected HEK293-6E cells (human, UniProt O75019 17-489).
T3 construct: whole, on cells; also called hLILRA1

Test [4] has as its target T4, Human LILRB4 on transiently transfected HEK293-6E cells (human, UniProt Q8NHJ6 22-448).
T4 construct: whole, on cells; also called hLILRB4

The target of test [5] is T5, Human LILRA5 on transiently transfected HEK293-6E cells (human, UniProt A6NI73 42-299).
T5 construct: whole, on cells; also called hLILRA5

The target of test [6] is T6, Human LILRB3 on transiently transfected HEK293-6E cells (human, UniProt O75022 24-631).
T6 construct: whole, on cells; also called hLILRB3

Test [7] has as its target T7, Human LILRA2 on transiently transfected HEK293-6E cells (human, UniProt Q8N149 24-483).
T7 construct: whole, on cells; also called hLILRA2

Test [8] deals with T8, Human LILRA6 on transiently transfected HEK293-6E cells (human, UniProt Q6PI73 24-481).
T8 construct: whole, on cells; also called hLILRA6

The target of test [9] is T9, Human LILRB5 on transiently transfected HEK293-6E cells (human, UniProt O75023 24-590).
T9 construct: whole, on cells; also called hLILRB5

In test [10] the target is T1, Human LILRB1 on transiently transfected …. The procedure: (§1) To determine that the anti-LILRB2 antibodies specifically bind to LILRB2 and not other LILRB and LILRA family members, a cross-reactivity assay was performed. Cross-reactivity of the LILRB2 antibodies to other LILRB proteins was assessed by antibody binding to transiently transfected HEK293-6E cells, measured by flow cytometry. Binding was evaluated to HEK293-6E cells transiently transfected with human LILRB-1, -2, -3, -4, and 5 plasmids (Origene, Nos. RC219949, RC217935, RC211228, RC220932, RC206516) or to cells transiently transfected with human LILRA-1, -2, -4, -5, and -6 plasmids (Origene, Nos. RC210808, RC205626, RC220452, RC212310 RC212965). […] Murine primary antibodies to LILRA and LILRB targets and corresponding isotype controls were used to confirm specific binding of all targets tested (R&D Systems) while an AF647 F(ab′)₂ fragment goat anti-mouse antibody (Jackson ImmunoResearch, No. 115-606-062) was used for the detection of bound positive control antibodies. No binding of B2A-IgG4 or B2A-IgG1 to LILRB-1, -3, -4, or -5 was observed, and no binding of either antibody to LILRA-1, -2, -4, -5, or -6 was observed, confirming specificity of these antibodies.
(§2) Select humanized variant antibodies were tested for their ability to bind other LILRB or LILRA family members, using the method and commercially available positive control antibodies of Example 5.
The source holds these as a separate data set.

For test [11], the target named is T10, Human LILRB2 on transiently transfected HEK293-6E cells (human, UniProt Q8N423 22-597).
T10 construct: whole, on cells; also called hLILRB2
The protocol: as §1, §2

The target of test [12] is T2, Human LILRA4 on transiently transfected …. The protocol: as §1, §2
This is another data set of the same source.

Test [13] deals with T3, Human LILRA1 on transiently transfected …. The protocol: as §1, §2
The source holds these as a separate data set.

The target of test [14] is T4, Human LILRB4 on transiently transfected …. The protocol:
as §1, §2
This is another data set of the same source.

In test [15] the target is T5, Human LILRA5 on transiently transfected …. The protocol:
as §1, §2
This is another data set of the same source.

In test [16] the target is T6, Human LILRB3 on transiently transfected …. The procedure: as §1, §2
This is another data set of the same source.

For test [17], the target named is T7, Human LILRA2 on transiently transfected …. The procedure:
as §1, §2
This is another data set of the same source.

Test [18] deals with T8, Human LILRA6 on transiently transfected …. The procedure:
as §1, §2
This is another data set of the same source.

Test [19] has as its target T9, Human LILRB5 on transiently transfected …. The procedure: as §1, §2
This is another data set of the same source.

In test [20] the target is T10, Human LILRB2 on transiently transfected …. The protocol:
as §1
This is another data set of the same source.

Test [21] concerns the target T2, Human LILRA4 on transiently transfected …. The procedure: as §1
The source holds these as a separate data set.

Test [22] deals with T3, Human LILRA1 on transiently transfected …. The protocol: as §1
The source holds these as a separate data set.

T10 sequence (Q8N423 22-597): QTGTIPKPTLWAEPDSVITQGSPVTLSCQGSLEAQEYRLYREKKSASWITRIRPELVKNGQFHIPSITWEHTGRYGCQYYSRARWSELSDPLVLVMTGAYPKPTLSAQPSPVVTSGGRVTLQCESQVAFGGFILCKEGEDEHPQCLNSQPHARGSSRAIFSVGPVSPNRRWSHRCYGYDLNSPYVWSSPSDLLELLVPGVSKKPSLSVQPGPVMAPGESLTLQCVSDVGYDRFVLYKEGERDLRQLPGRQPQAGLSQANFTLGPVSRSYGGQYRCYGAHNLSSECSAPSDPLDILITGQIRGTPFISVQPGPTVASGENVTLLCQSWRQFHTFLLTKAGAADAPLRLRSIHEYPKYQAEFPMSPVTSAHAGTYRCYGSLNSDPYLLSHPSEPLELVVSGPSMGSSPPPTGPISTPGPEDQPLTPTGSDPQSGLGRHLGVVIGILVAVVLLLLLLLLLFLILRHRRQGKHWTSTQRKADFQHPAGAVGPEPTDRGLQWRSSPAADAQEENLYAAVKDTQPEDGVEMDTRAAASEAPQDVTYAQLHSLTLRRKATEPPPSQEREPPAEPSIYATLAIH
T1 sequence (Q8NHL6 24-650): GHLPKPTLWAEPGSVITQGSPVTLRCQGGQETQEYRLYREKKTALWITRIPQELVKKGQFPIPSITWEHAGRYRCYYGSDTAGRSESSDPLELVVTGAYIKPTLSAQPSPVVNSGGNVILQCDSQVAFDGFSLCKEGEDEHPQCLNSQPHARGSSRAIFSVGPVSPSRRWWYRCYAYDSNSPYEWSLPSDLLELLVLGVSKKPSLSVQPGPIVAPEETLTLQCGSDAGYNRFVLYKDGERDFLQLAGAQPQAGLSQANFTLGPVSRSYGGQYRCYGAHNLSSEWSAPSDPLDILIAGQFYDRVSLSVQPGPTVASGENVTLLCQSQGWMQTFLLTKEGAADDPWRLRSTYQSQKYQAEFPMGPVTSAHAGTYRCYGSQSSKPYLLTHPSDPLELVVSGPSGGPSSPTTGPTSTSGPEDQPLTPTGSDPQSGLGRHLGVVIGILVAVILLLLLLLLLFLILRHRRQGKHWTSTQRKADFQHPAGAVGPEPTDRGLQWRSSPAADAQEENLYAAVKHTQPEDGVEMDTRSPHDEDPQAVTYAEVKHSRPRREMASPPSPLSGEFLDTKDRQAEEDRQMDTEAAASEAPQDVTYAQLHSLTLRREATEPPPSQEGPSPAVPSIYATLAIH
T3 sequence (O75019 17-489): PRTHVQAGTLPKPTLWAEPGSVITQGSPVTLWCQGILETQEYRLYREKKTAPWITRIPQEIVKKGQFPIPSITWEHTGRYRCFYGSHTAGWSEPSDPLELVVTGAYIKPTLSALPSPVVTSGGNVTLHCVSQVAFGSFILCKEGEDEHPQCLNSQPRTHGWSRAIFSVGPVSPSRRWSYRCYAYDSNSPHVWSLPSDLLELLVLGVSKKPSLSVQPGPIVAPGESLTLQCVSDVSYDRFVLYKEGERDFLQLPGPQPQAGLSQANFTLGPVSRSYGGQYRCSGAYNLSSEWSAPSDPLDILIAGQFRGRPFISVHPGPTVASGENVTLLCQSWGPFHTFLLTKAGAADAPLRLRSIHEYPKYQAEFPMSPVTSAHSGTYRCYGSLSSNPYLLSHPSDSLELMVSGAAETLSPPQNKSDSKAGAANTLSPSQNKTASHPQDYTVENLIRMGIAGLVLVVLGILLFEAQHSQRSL
T8 sequence (Q6PI73 24-481): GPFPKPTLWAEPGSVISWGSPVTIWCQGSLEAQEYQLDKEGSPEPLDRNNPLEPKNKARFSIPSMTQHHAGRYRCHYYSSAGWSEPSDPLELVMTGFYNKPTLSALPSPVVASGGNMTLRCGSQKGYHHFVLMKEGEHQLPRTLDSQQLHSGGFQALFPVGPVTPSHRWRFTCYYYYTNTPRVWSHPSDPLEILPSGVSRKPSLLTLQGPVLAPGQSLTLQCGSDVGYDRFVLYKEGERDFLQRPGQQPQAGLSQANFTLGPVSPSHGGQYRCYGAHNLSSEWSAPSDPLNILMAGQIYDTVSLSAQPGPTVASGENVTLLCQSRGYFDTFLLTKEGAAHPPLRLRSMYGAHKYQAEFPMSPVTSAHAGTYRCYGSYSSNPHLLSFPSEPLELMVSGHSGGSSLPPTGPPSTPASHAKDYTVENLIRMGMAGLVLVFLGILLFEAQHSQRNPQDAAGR
T5 sequence (A6NI73 42-299): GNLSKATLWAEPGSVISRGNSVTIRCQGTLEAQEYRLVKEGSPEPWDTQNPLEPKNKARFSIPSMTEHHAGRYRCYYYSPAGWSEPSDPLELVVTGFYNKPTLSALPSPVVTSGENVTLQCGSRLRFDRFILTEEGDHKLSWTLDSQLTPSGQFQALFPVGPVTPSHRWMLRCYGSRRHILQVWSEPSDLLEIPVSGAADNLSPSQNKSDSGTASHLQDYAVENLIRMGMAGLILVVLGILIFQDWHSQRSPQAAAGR
T7 sequence (Q8N149 24-483): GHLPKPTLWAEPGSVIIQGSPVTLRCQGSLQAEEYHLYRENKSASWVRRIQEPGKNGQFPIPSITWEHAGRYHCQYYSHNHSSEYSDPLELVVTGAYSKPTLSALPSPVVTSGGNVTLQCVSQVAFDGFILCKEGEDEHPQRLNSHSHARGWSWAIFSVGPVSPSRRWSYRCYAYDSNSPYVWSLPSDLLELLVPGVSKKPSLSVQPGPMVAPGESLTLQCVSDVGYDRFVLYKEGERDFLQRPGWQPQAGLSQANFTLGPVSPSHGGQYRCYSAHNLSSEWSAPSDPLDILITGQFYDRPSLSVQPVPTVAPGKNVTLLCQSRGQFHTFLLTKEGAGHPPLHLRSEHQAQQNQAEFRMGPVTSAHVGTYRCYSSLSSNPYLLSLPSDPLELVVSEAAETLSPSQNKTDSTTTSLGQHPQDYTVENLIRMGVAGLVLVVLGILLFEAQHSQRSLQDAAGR
T2 sequence (P59901 24-499): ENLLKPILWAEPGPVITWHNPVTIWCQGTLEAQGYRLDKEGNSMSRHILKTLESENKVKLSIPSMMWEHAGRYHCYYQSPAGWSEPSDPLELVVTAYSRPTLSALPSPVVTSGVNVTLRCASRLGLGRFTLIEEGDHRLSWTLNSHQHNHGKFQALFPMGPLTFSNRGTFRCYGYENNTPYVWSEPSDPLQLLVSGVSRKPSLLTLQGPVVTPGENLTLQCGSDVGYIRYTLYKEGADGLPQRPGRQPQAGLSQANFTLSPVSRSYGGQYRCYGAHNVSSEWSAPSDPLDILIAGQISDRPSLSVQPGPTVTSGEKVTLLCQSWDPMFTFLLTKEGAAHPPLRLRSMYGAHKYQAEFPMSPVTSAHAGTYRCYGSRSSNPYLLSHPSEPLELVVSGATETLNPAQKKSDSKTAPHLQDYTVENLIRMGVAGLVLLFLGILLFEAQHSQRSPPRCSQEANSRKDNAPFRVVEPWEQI
T9 sequence (O75023 24-590): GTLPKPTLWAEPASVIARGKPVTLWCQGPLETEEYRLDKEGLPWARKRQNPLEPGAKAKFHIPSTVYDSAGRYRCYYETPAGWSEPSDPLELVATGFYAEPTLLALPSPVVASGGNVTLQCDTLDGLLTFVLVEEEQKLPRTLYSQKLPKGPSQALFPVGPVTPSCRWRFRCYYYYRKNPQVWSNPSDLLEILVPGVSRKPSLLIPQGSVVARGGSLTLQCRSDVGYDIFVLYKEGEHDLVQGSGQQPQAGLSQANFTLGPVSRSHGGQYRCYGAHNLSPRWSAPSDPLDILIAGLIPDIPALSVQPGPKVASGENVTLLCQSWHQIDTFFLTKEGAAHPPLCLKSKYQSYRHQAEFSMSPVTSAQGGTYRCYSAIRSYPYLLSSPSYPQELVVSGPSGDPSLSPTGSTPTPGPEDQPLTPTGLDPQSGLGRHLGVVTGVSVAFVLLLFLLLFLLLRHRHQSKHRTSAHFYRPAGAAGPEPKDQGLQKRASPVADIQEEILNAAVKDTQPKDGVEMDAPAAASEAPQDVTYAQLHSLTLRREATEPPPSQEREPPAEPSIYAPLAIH

B1: B2H1-55 (antibody, V domains shown)
VH: EVQLLESGGGLVQPGTSLTLSCAASGFSLSTYAMSWVRQAPGKGLEWIGWIYNDGSTYYAAWAKGRFTISKDTSKTTLYLQITSLRAEDTATYFCAREGDYIGYFNIWGQGTLVTVSS
VL: DVVMTQTPSSVSAALGGTVTIKCQASQSIGSNLAWYQLKPGQRPKLLIYAAATLASGGSSRFKGSGSGTDFTLTISSLEPADAATYYCQSYVSGSSDVAFGGGTEVVVK
notes: Humanized variant, human IgG1 / kappa; also called humanized variant B2H1-55; humanized LILRB2 antibody B2H1-55
Turning to B1, the binding result in test [1], in test [2], in test [3], in test [4], in test [5] and in test [6] was “no binding” each time. Moreover, the binding result in test [7], in [8] and in test [9] was “no binding” throughout. Also, the “Bmax (MFI)” value in [10] amounted to 41.4 MFI; in test [11], 11000 MFI; in test [13], 783 MFI; in [14], 40.3 MFI; in test [15], 129 MFI; in [16] it was 154 MFI. Besides, the “Bmax (MFI)” value in test [17] is 37.7 MFI; in [18] it was 214 MFI; in test [19] it was 138 MFI. The “BMAX [gMFI]” value in test [12] was determined as 112 gMFI.

B2: B2A-IgG1 (antibody)
heavy: not shown
light: DVVMTQTPSSVSAALGGTVTIKCQASQSIGSNLAWYQLKPGQRPKLLIYAAATLASGGSSRFKGSGSGTDFTLTISDLECADAATYYCQSYVSGSSDVAFGGGTEVVVKRTVAAPSVFIFPPSDEQLKSGTASVVCLLNNFYPREAKVQWKVDNALQSGNSQESVTEQDSKDSTYSLSSTLTLSKADYEKHKVYACEVTHQGLSSPVTKSFNRGEC
notes: Rabbit variable regions on human IgG1 / kappa constant regions; AF647-conjugated in some flow assays; also called B2A-IgG1 chimera; anti-LILRB2 B2A-IgG1
B2: the binding result in test [1], in test [2], in test [3], in [4], in test [5] and in test [6] was “no binding” each time. In addition, the binding result in [7], in [8] and in test [9] was “no binding” throughout. The results for the MFI in test [20], in [21] and in test [22] were 11300 MFI, 116 MFI and 898 MFI, respectively. Besides, the “Bmax (MFI)” value was found to be 41.9 MFI in [10]; 11300 MFI in test [11]; 837 MFI in test [13]; 41.4 MFI in test [14]; 124 MFI in [15]; 163 MFI in [16]. Besides, the “Bmax (MFI)” value in [17] was determined as 40.4 MFI; in test [18], 211 MFI; in test [19], 147 MFI. Also, the “BMAX [gMFI]” value in test [12] worked out at 104 gMFI.

B3: B2A-IgG4 (antibody)
heavy: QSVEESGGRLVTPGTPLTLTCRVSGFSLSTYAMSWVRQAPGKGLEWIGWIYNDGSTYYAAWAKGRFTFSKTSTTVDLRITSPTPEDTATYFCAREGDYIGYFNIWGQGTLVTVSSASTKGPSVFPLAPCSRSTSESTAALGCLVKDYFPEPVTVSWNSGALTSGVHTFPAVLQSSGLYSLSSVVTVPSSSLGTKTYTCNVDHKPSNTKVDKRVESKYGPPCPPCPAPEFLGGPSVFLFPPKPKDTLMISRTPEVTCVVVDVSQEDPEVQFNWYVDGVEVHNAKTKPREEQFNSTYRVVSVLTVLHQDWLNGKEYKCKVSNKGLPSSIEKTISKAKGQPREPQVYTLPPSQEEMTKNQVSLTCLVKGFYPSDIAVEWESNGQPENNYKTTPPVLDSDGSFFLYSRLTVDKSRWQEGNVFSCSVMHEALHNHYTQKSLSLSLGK
light: DVVMTQTPSSVSAALGGTVTIKCQASQSIGSNLAWYQLKPGQRPKLLIYAAATLASGGSSRFKGSGSGTDFTLTISDLECADAATYYCQSYVSGSSDVAFGGGTEVVVKRTVAAPSVFIFPPSDEQLKSGTASVVCLLNNFYPREAKVQWKVDNALQSGNSQESVTEQDSKDSTYSLSSTLTLSKADYEKHKVYACEVTHQGLSSPVTKSFNRGEC
notes: Rabbit variable regions on human IgG4 / kappa constant regions; also called B2A-IgG4 chimera; Parent B2A-IgG4
Turning to B3, the binding result in test [1], in test [2], in test [3], in [4], in test [5] and in [6] was “no binding” each time. In addition, the binding result in test [7], in test [8] and in test [9] was “no binding” throughout. Besides, the MFI was found to be 1160 MFI in test [20], 30 MFI in test [21] and 73 MFI in test [22].
